The values that follow come from patent publication US20210047412A1.

In assay [1] the target is canine PD-1 (canine). The assay is described as follows: ELISA on plate-bound tagged canine PD-1, Kd by the Bobrovnik method. Background: ELISA stands for enzyme-linked immunosorbent assay.
Assay [2] concerns the target canine PD-1 (canine). Nature of the assay: competition ELISA, blockade of canine PD-1/PD-L1 binding; competitor canine PD-L1.
Assay [3] has as its target canine PD-1 (canine). Nature of the assay: competition ELISA, inhibition of canine PD-1 binding to canine PD-L1; competitor canine PD-L1 (Table 2).
Assay [4] has as its target canine PD-1 (canine). The assay is described as follows: ELISA, affinity for canine PD-1 (Table 2).
For assay [5], the target named is canine PD-1 (canine). The assay is described as follows: ELISA; footnote: predicted affinity, not quantitatively measured.

B1: NAN4 (5A1) (VHH)
VHH: QVQLQASGGGLVQPGGSLTLSCAASGSIDSILAMGWYRQGPGKQREFVASISWSGDITYYADSAKGRFTISRDNAKNTVYLQMNSLKPEDTAVYYCNAGPDMQISGPTDDYDYWGQGTQVG
For the molecule B1, the equilibrium dissociation constant (Kd) with canine PD-1 (canine) [1] and with canine PD-1 (canine) [4] was 7 nM each time. Besides, the IC50 in the assay with canine PD-1 (canine) [2] and with canine PD-1 (canine) [3] was 8.25 nM throughout.

B2: NAN13/14 (VHH)
VHH: QVQLQASGGGLAQPGGSLRLSCAASGFTFSSYAMSWARQAPGKGLEWVSGIYSDGSGSYYADSVKGRFTISRDNAKNTLYLQMNSLKPEDTALYYCAKGSWSRGIKETDYWGQGTQVG
In the case of B2, the Kd with canine PD-1 (canine) [5] was above 10 nM.

B3: NAN15 (4B2) (VHH)
VHH: QVQLQASGGGLVQPGEHLLLSCAASGFAFGIYTMGWYRQAPGKEREKVASISRTSDSWNYADSVKGRFTISRENAKNTLYLQMNSLKPEDTALYFCAKSRSAWNTDDIEYWGQGTQVG
For B3, the dissociation constant Kd with canine PD-1 (canine) [1] and in the assay with canine PD-1 (canine) [4] was 2.51 nM each time. The IC50 with canine PD-1 (canine) [2] and with canine PD-1 (canine) [3] was 5 nM in each case.

B4: NAN20 (VHH)
VHH: QVQLVQSGGEVKKPGASVKVSCKASGYTFTNYGITWARQAPGKGLEWVGGIYSDGSEPYYADSMKGRFTISRDNVKSTLYLQMNDLKPEDTALYFCAKGRGDFLKSAWRENRRYDSWGQGTQVG
On to B4, for which the dissociation constant Kd with canine PD-1 (canine) [5] is above 10 nM.

B5: NAN6 (VHH)
VHH: QVQLQASGGGLVQPGGSLTLSCAASGSIDSILAMGWYRQGPGKQRELVATITSDGGSTNYAEYVKGRFTISRDDANNTACLQMDNLKPDDTAVYYCNAKGRRLSYGYWGQGTQVG
As to B5, in the assay with canine PD-1 (canine) [5], the Kd is above 10 nM.

B6: NAN22 (VHH)
VHH: QVQLQASGGGLVQPGGSLRLSCAASGSIFGLYAMGWYRQAPGKQRDLVAAIASGGSTNYADSVKGRFTISRDNAKNTVYLQMNSLKPEDTADYYCNVAGDVTAQNRCKHLEVWGQGTQVG
In the case of B6, in the assay with canine PD-1 (canine) [5], the Kd is above 10 nM.

B7: NAN27 (VHH)
VHH: QPQAFGGGLVQPGGSLRLSCVASGSTDSIYAMGWYRQAPGKQRELVATITSADSTNYADSVKGRFTISRDNAKNTVVLQMNSLKPEDTAVYYCNAGSLAGYDYWGQGTQVG
As to B7, the dissociation constant (Kd) with canine PD-1 (canine) [5] is above 10 nM.

B8: NAN7/8 (5A5) (VHH)
VHH: QVQLQASGGGLVEPGGSLRLSCAASGAIFRIAAMGWYRQAPGKERELVATITRGGSTNYADSVKGRFTISRDNAKNTAYLQMDSLKAEDTGVYYCNAGLWATTSANYWGQGTQVG
B8: the Kd in the assay with canine PD-1 (canine) [1] and with canine PD-1 (canine) [4] was 5.01 nM in each case. Further, the IC50 with canine PD-1 (canine) [2] and with canine PD-1 (canine) [3] was 6.83 nM in each case.

B9: NAN9 (VHH)
VHH: QVQLQASGGGLVQPGGSLRLSCATSGFTLDNLAIGWLRQAPGKEREGVSCISGSVGSTYYVDSVEGRFTISKDNAKNTVALQMDRLNPEDTAVYYCSAVGRERTHLPNWQYWGQGTQVG
B9: in the assay with canine PD-1 (canine) [5], the Kd was above 10 nM.

B10: NAN10 (4B4) (VHH)
VHH: QVQLQASGGGLVQGGESLRLSCAASGRTVAEYTIGWYRQAPGKEREFVAGPSWHARGTSYLDSVKGRFTISRDNTKDTVYLQMNTLKPEDTAVYYCNADVNTDYSEYVEYWGQGTQVG
Regarding B10, the Kd in the assay with canine PD-1 (canine) [1] and in the assay with canine PD-1 (canine) [4] was 2.3 nM each time. Further, the IC50 with canine PD-1 (canine) [2] and with canine PD-1 (canine) [3] was 5.04 nM throughout.

Usually Kd stands for the free concentration of one partner at which half of the binding sites on the other are occupied at equilibrium, for simple one-to-one binding. As a reminder, the IC50 is the concentration that inhibits the measured activity by half. Read a high IC50 as lower potency.
